This is an account of results in publication PMC4116301.

The target in experiment [1] is microtubules (tubulin purified from cow brains) (cow) (UniProt Q6B856). Description: co-sedimentation.
The target of experiment [2] is Xenopus laevis Bonsai CENP-E (Xenopus laevis). Description: single-molecule fluorescence brightness and photobleaching steps.

The Kd is the equilibrium constant for the complex coming apart. In the case of “Xenopus laevis full-length CENP-E (natural protein)”, the Kd in experiment [1] stood at 24 nM. That is a double-digit nanomolar value.

Usually stoichiometry N stands for a count of units in the complex or per binding partner. Substance Xenopus laevis Bonsai CENP-E showed a stoichiometry N in experiment [2] of 2.
